B1: 1E12H10_7A1 (antibody, V domains shown)
VH: QVQLVESGGGVVQPGRSLRLSCATSGFTFSSYGMHWVRQAPGKGLEWVALIWFDGGNQYYADSVKGRFTISRDNSKNTLYLQLNSLRAEDTAVYFCARDVISMVRGVPFDYWGQGTLVTVSS
VL: DAVVTQESALTTSPGETVTLTCRSSTGAVTTGNYANWVQEKPDHLFTGLIGGIKNRVPGVPARFSGSLIGDRAALTITGAQTEDEAIYFCALWYSNHWVFGGGTKLTVLG
B2: 1E2F12H8_3D2 (antibody, V domains shown)
VH: EVQLLESGGGLVQPGGSLRLSCAASGFTFSSYAMSWVRQAPGKGLEWVSIISGSGGDTYYADSVKGRFTISRDNSKNTLYLQMNSLRAEDTAVYYCAKTDDHGDFFDYWGQGTLVTVSS
VL: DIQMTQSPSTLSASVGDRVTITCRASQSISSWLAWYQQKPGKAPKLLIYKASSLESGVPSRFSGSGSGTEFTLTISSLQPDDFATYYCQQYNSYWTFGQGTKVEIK
B3: 3C4A3_7C5 (antibody, V domains shown)
VH: EVQLLESGGGLVQPGGSLRLSCAASGFTFSSYAMSWVRQAPGKGLEWVSVISGSGGSTYYADSVKGRFTISRDNSKNTLDLQMNSLRAEDTAVYYCAKLGDYYYGMDVWGQGTTVTVSS
VL: not shown
B4: 17E8_27C5 (antibody, V domains shown)
VH: B1 VH with T24A, S31N, V48M, L50G, G56T, Q58K, A61I, L83M, S85N, F95Y
VL: B1 VL with G32S, K54N, V57A, R72K
notes: Recombinant antibody from CHO cells
B5: 11H10_27D4 (antibody, V domains shown)
VH: B1 VH with T24A, S31N, M34I, L50V, G56N, Q58K, L83M, F95Y, S102T, M103L
VL: B1 VL with L20V, G32S, K54N, V57A, R72K
notes: as for B4
B6: 17F4_27C6 (antibody, V domains shown)
VH: B1 VH with T24A, S31T, M34I, L50V, G56S, Q58K, L83M, F95Y
VL: B1 VL with G32S, K54N, R72K, L106V
notes: as for B4
B7: 20H6_24C3 (antibody, V domains shown)
VH: QVQLQESGPGLLKPSETLSLTCTVSGGSISPYYWSWIRQPPGKGLEWIGYIYYSGNTNYNPSLQSRLTISVDTSKNQFSLKLSSVTAADTAVYYCARRGYSFGFYYGLDVWGQGTTVTVSS
VL: DIQMTQSPSSLSASVGDRVTITCRASQDISIYLAWYQQKPGKVPNLLIYLASTLQSGVPSRFSGSGSGTDFTLTISSLQPEDVATYYCQKYNSAPWTFGQGTKLEIK
notes: as for B4
B8: 7C12_24A6 (antibody, V domains shown)
VH: QVQLQESGPGLVNPSKTLSLTCTVSGGSISSYFWSWIRQPPGKGLEWIGYIYDSGSTNYNPSLKSRVTISVDTSKNHFSLKLSSVTAADTAVYYCARRGGYYGSGSYGGMDVWGQGTTVTVSS
VL: B7 VL with D28G, I31N, N45K, Y49S, L50A
notes: as for B4
B9: 8C7_24B1 (antibody, V domains shown)
VH: QVQLQESGPGLVKPSETLSLTCTVSGGSISSYYWSWIRQPPGKGLEWIGYIHYSGSTNYNPSLKSRVTISEDTSKNQFSLKLSSVTAADTAVFYCAGRRYYYDSSGYLDYWGQGTLVTVSS
VL: B7 VL with D28G, I31N, N45K, L50A
notes: as for B4
B10: 10A5_24A2 (antibody, V domains shown)
VH: QLQLQESGPGLVNPSKTLSLTCNVSGGSMSNYFWSWIRQPPGKGLEWIGYIYNSGNTNYHPSLQSRVTISVDTSKNLFSLKLTSVTAADTAVYYCARRGGYYGSGNYGGLDVWGHGTTVTVSS
VL: B7 VL with D28G, I31N, N45K, L50A, S65T, N92D, L104V
notes: as for B4
B11: 6H9_27D5 (antibody, V domains shown)
VH: QVELQQSGPGLVKPSETLSLTCTVSGGSISTYFWSWTRQPPGKGLEWIGYTNYRGNTNYNPSLESRVTISVDTSKNQFSLKLSSVTAADTAVYYCARRGGYYGSGNYGGMDVWGQGTTVTVSS
VL: B7 VL with D28G, I31N, N45K, L50A, V83L, N92D
notes: as for B4
B12: 5E3-24B4 (antibody, V domains shown)
VH: B9 VH with Y32H, S35N, S56G, L63Q, E71V, F93Y, Y102F
VL: B7 VL with D28G, I31N, V43I, N45K, L50A
notes: as for B4
B13: 3D8D11 (antibody, V domains shown)
VH: B8 VH with N13K, K16E, D53Y, H77Q, Y102S, G103Y, S104G, G105Y, S106G, G108Y
VL: B7 VL with D28G, I31N, N45K, L50A
notes: as for B4
B14: 5A2_24A1 (antibody, V domains shown)
VH: B8 VH with S31R
VL: B7 VL with D28G, I31N, V43I, N45K, Y49S, L50A, N92D, L104V
notes: as for B4
B15: 4F4_27D3 (antibody, V domains shown)
VH: B9 VH with Y32H, H52Y, S54N, S56G, N60K, E71V, S83T, F93Y
VL: B7 VL with D28G, I31N, N45K, L50A
notes: as for B4
B16: 14E7_27C1 (antibody, V domains shown)
VH: B7 VH with L12V, P31S, N56S, Q64K, F102Y, F104Y, L108M
VL: B7 VL with I31N, N45K, Y49S, L50P
notes: as for B4
B17: 1C4_24B3 (antibody, V domains shown)
VH: B8 VH with S7A, D53N, K64Q, T73M, S106N
VL: B7 VL with V15A, D28G, I31N, N45K, I48M, L50A, T53A, N92D, L104V
notes: Recombinant antibody from CHO cells; also called 1C4_24B4
B18: 3H3_24B2 (antibody, V domains shown)
VH: B8 VH with V2I, S30R, S56N, S106N
VL: B7 VL with D28G, I31N, N45K, L50A
notes: as for B4
B19: 16B10_27D2 (antibody, V domains shown)
VH: QVQLVESGGGVVQPGRSLRLSCAASGFTFNNYGMHWVRQAPGKGLEWVAIIWNDGSNPYYADSVKGRFTISRDNSKNTLYLQMNSLRAEDTAVYYCVRDSSSWFVNYFDYWGQGTLVTVSS
VL: EIVMTQSPATLSVSPGERATLSCRASQSVNRNLAWYQQKPGQAPRLLIYGASTRATGIPASFSGSGSGTEFTLTISSLQSEDFAVYYCQHYNHWPLTFGGGTKVEIK
notes: as for B4
B20: 8E11B6 (antibody, V domains shown)
VH: QVQLEESGGGVVQPGRSLRLSCAASGFTFSSYGMHWVRQAPGKGLEWVAVIWYDGSNTYYADSVKGRFTISRDNSKNTLYLQMNSLRAEDTAVYYCARERETFFYVMDAWGQGASVTVSS
VL: DIQMTQSPSTLSASVGDRVTITCRASQSISSWLAWYQQKPGKAPKLLIYKASSLESGVPSRFSGSGSGTEFTLTISSLQPDDFAIYYCQQFNRFITFGQGTRLEIK

Residue numbers refer to the chain shown, from its start.

For orientation: Kd means the constant that tells how readily two partners part at equilibrium. The term EC50 (read off the curve) denotes the midpoint of the concentration-response curve.

The first assay addresses T1, recombinant cynomolgus monkey ILT3 ectodomain with C-terminal histidine tag (cynomolgus monkey).
T1 construct: extracellular domain; Non-native signal peptide; expressed in CHO cells
Kind of assay: BLI (Octet Red), antibody on Protein A biosensors, recombinant ILT3 in solution. On the technique in general: Biolayer interferometry detects binding as a change in optical thickness at a sensor tip.
Protocol: (§1) Affinity: The affinity of antibodies to recombinant ILT3 was determined on an Octet Red™ (Pall, ForteBio) instrument. After loading reagents into a 96-well plate, the Octet Red™ with Protein A-conjugated biosensors was programmed as follows: 30 seconds for baseline #1; 45 seconds to immobilize the antibody; 30 seconds for baseline #2; 300 seconds for association of antibody to recombinant ILT3; and 300 seconds for dissociation of recombinant ILT3 from the antibody. In some cases, the antibody affinity was estimated against cynomolgus ILT3 using a flow based method. Briefly, the assay uses 3-5 fold dilutions from 100 nM to 0.1 nM of a stock antibody concentration (100 nM) diluted in flow buffer. […] Acquisition of the MFI (Median Fluorescent Intensity) was performed on a MACSQuant® Flow Cytometers (Miltenyi Biotec).
For the molecule B1, the Kd was found to be 200 nM.

Consider B2, for which the Kd worked out at 27 nM.

With B3, the Kd came out at 56 nM.

For another assay, the target named is T2, recombinant human ILT3 ectodomain with C-terminal histidine tag (human, UniProt Q8NHJ6 22-259).
T2 construct: also called recombinant ILT3; hILT3; not shown: C-terminal histidine tag
T2 sequence (Q8NHJ6 22-259 D223G): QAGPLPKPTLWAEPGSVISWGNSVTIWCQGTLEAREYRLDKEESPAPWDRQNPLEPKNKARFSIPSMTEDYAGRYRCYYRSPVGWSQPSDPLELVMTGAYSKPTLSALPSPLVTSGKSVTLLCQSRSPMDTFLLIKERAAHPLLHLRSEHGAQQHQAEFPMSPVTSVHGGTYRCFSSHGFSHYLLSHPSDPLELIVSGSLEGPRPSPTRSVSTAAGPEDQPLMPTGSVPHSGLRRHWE
The assay is described as above.
Regarding B1, the Kd is 3 nM.

In the case of B4, the dissociation constant (Kd) came out at 2 nM.

As to B5, the Kd came to 1 nM.

On to B6, for which the Kd was determined as 3 nM.

In the case of B2, the Kd amounted to 6 nM.

For the molecule B3, the Kd was found to be 21 nM.

B7: the Kd was 1 nM.

On to B8, for which the Kd is 50 nM.

For the molecule B9, the equilibrium dissociation constant (Kd) stood at 60 nM.

Take B10: the Kd turned out to be 2 nM.

B11: the Kd worked out at 1 nM.

As to B12, the Kd was 2 nM.

On to B13, for which the Kd worked out at 170 nM.

As for B14, the Kd stood at 30 nM.

Regarding B15, the dissociation constant (Kd) came out at 30 nM.

Take B16: the dissociation constant (Kd) was 75 nM.

B17: the Kd was determined as 12 nM.

As to B18, the Kd was 40 nM.

Regarding B19, the equilibrium dissociation constant (Kd) stood at 1 nM.

B20: the Kd came out at 10 nM.

The target in the next assay is T3, cynomolgus ILT3 expressed on HEK293 cells (Macaca fascicularis (cynomolgus monkey)).
T3 construct: whole, on cells; also called Macaca fascicularis ILT3 homologue; macaque ILT3 homologue
As to the kind of experiment: flow cytometry, serial antibody dilutions on live HEK293 cells expressing cynomolgus ILT3, Alexa Fluor 647 anti-human IgG secondary, MFI. In general terms: In flow cytometry, cells or beads pass a laser one at a time.
Protocol: as §1
As for B2, the “EC50 (read off the curve)” value was approximately 6 nM.

For the origin of these results see patent US20220227863A1 (BLUEFIN BIOMEDICINE, published 2022).
